Test [1] deals with murine RAGE (murine, UniProt Q62151 23-231, limits assumed). In words: ELISA, apparent Kd.
Test [2] has as its target T1, murine RAGE V-C1 domain (murine, UniProt Q62151 23-231, limits assumed).
T1 construct: domain: V-C1 domain; Used as the immunogen and as the ELISA antigen; also called mVC1; WT mVC1
The experiment in a line: ELISA, apparent Kd.

The target of test [3] is T2, human RAGE extracellular domain (human, UniProt Q15109 23-342).
T2 construct: extracellular domain; Immobilized on ELISA plates; also called WT human RAGE
T2 sequence (Q15109 23-342): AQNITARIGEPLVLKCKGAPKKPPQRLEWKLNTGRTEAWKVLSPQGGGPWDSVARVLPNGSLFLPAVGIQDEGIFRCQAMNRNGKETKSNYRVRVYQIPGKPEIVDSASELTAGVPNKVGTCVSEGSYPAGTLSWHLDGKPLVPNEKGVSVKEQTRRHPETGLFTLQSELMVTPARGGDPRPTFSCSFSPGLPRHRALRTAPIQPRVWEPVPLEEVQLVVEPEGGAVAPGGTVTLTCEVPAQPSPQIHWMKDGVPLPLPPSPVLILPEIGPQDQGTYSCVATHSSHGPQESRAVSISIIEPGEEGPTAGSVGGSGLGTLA
The experiment in a line: ELISA, apparent Kd.

Test [4] concerns the target T3, human RAGE R216A-R218A mutant (human, UniProt Q15109 23-342).
T3 construct: extracellular domain; Mutant of the human RAGE extracellular domain, immobilized for ELISA
The experiment in a line: ELISA on immobilized antigen. The protocol:
As shown in the dashed oval, the epitope of B2 mAb includes R216 and R218. Panel B depicts the binding of B2 mAbs to immobilized WT human RAGE or the R216A-R218A mutant as determined by ELISA. The binding of B2 mAbs to R216A-R218A was reduced by 40-fold.
200 ng of human RAGE extracellular domain or R216A-R218A mutant were immobilized onto 96-well high-binding ELISA plate. Plates were blocked with 5% BSA in PBS and incubated with 0.01 to 10 nM of rabbit B2 mAb for 1 hour at room temperature. Bound B2 mAbs were quantitated with anti-rabbit-HRP (Jackson Immunology) followed by the addition of HRP substrate (Thermo Scientific).

The results in this text go back to US20220396618A1 (RESEARCH FOUNDATION FOR THE STATE UNIVERSITY OF NEW YORK, published 2022).

T1 sequence (Q62151 23-231 limits assumed): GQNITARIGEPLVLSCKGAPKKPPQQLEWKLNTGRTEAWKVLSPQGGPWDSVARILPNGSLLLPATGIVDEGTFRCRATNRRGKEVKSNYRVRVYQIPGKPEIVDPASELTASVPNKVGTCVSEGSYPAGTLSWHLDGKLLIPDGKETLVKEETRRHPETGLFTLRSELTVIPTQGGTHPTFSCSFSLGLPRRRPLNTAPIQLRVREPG
murine RAGE, sequence (Q62151 23-231 limits assumed): as above
T3 sequence (Q15109 23-342 R216A/R218A): as the sequence (Q15109 23-342) above, with R194A, R196A counted along it

B1: rabbit B2 mAb (antibody, V domains shown)
VH: QSVKESEGGLFKPTDTLTLTCTVSGFTISSYDMSWVRQAPGKGLEWIGAIDSSGSAHYASWARSRSTITRNTNLNTVTLKMTSLTAADTATYFCWNANIWGPGTLVTVSS
VL: AQVLTQTASPVSAAVGSTVTINCQASQNVYDNNHLSWYQQKRGQPPKLLIYYASALASGVSSRFKGSGSGTQFTLTINDVQCDDAATYYCLGSYDCSADCFAFGGGTEVVV
notes: Rabbit monoclonal antibody from a hybridoma; also called B2 mAbs; rabbit mAb B2
Take B1: the Kd in test [1] was 0.03 nM; in test [2], 0.08 nM; in test [3], 0.08 nM. The “fold reduction of binding against WT human RAGE” value in test [4] turned out to be 40 fold.
